We go through 25 substances from patent US12042530B2, “Target peptides for immunotherapy and diagnostics” (University of Virginia Patent Foundation, priority 2012, dated 2024).

Non-standard residues stand in square brackets, D forms with d. No end group written: not given here. pT = C[C@@H](OP(=O)(O)O)[C@H](N)C(=O)O; pS = N[C@@H](COP(=O)(O)O)C(=O)O

For test [1], the target named is T1, HLA-B*0702 (HLA-B7) peptide complexes (Homo sapiens, UniProt P01889).
T1 construct: endogenous in cells; host or cells: JY B-lymphoblastoid line; primary ALL, CLL, HCL, AML samples; bone marrow; healthy B and T cells
The test can be described thus: HLA-B*0702 phosphopeptides associated with leukemia samples (isolation of HLA-associated peptides). The note with it: for Copies/cell class, ALL1: acute lymphoblastic leukemia sample ALL1; for Copies/cell class, B Cell: healthy B cells; for Copies/cell class, T Cell: healthy T cells; for Copies/cell class, HCL1: hairy cell leukemia sample HCL1. An outline of the steps:
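Class I HLA-A2 and HLA-B7 complexes were immunoaffinity-purified (BB7.2 or MEL antibodies on protein A) from CHAPS lysates of ~1.2-14×10^9 cells, using phosphatase and protease inhibitors. Sources were Ficoll-purified (>98%) CLL, MCL, ALL and AML cells, healthy splenic T/B cells and JY cells. Peptides were eluted with 10% acetic acid.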

The target of another test is T2, HLA-B*0702 (Homo sapiens, UniProt P01889).
T2 construct: endogenous in cells; host or cells: melanoma and/or leukemia cells
The experiment in a line: Phosphopeptides presented in association with class I molecules (HLA-B*0702) on cancer cells: melanoma and/or leukemia. More on the design: key: Melanoma (M); Leukemia (L); L/M: Melanoma (M) and/or Leukemia (L). Conditions: cancer type on which the HLA-B*0702 phosphopeptide is presented.

Take “287 (KPP[pT]PGASF; listed as Homo sapiens) [compound 287]”: in test [1], the “Copies/cell class, ALL1” value was 3 (3 indicates 6-25 copies per cell); the “Copies/cell class, B Cell” value was 1 (1 indicates <1 copy/cell); the “Copies/cell class, T Cell” value was 2 (2 indicates 1-5 copies/cell). Moreover, in the test with HLA-B*0702, the L/M entry is on record as “L”.

For “356 (RRS[pS]LDAEIDSL; listed as Homo sapiens) [compound 356]”, in test [1], the “Copies/cell class, AML1” value is reported as 1 (1 indicates <1 copy/cell). In addition, the L/M entry with HLA-B*0702 was “L”.

With “327 (RPRPH[pS]APSL; listed as Homo sapiens) [compound 327]”, the “Copies/cell class, AML1” value in test [1] is reported as 2 (2 indicates 1-5 copies/cell). Besides, the L/M entry in the test with HLA-B*0702 is reported as “L”.

Turning to “352 (RRK[pS]QVAEL; listed as Homo sapiens) [compound 352]”, in test [1], the “Copies/cell class, AML1” value is 4 (4 indicates >25 copies per cell). Also, the L/M entry with HLA-B*0702 was “L”.

Take “388 (TPR[pS]PPLGLI; listed as Homo sapiens) [compound 388]”: in test [1], the “Copies/cell class, AML1” value is reported as 3 (3 indicates 6-25 copies per cell); the “Copies/cell class, CLL2” value was 2 (2 indicates 1-5 copies/cell); the “Copies/cell class, CLL4” value is given as 2 (2 indicates 1-5 copies/cell); the “Copies/cell class, JY” value was 4 (4 indicates >25 copies per cell). In addition, the “Copies/cell class, HCL1” value in test [1] is given as 2 (2 indicates 1-5 copies/cell). The L/M result in the test with HLA-B*0702 was “L”.

Take “385 (TPAQPQRR[pS]L; listed as Homo sapiens) [compound 385]”: the “Copies/cell class, ALL1” value in test [1] is 1 (1 indicates <1 copy/cell). Also, the L/M entry with HLA-B*0702 is recorded as “L”.

In the case of “318 (RPKPSS[pS]PV; listed as Homo sapiens) [compound 318]”, in test [1], the “Copies/cell class, CLL2” value is recorded as 1 (1 indicates <1 copy/cell) and the “Copies/cell class, ALL1” value is 2 (2 indicates 1-5 copies/cell). In addition, the “Copies/cell class, BM” value in test [1] (healthy bone marrow) was 1 (1 indicates <1 copy/cell). Moreover, in the test with HLA-B*0702, the L/M entry is “L”.

For “363 (RTE[pS]DSGLKK; listed as Homo sapiens) [compound 363]”, in test [1], the “Copies/cell class, ALL1” value was 1 (1 indicates <1 copy/cell). For the same substance, in the test with HLA-B*0702, the L/M entry is “L”.

For “295 (KPR[pS]PVVEL; listed as Homo sapiens) [compound 295]”, in test [1], the “Copies/cell class, AML1” value is on record as 4 (4 indicates >25 copies per cell); the “Copies/cell class, CLL2” value is on record as 4 (4 indicates >25 copies per cell); the “Copies/cell class, CLL4” value is 4 (4 indicates >25 copies per cell); the “Copies/cell class, JY” value is reported as 4 (4 indicates >25 copies per cell). In test [1], the “Copies/cell class, ALL1” value is recorded as 2 (2 indicates 1-5 copies/cell) and the “Copies/cell class, HCL1” value is on record as 4 (4 indicates >25 copies per cell). In addition, the L/M result with HLA-B*0702 is reported as “L/M”.

For “323 (RPQRA[pT]SNVF; listed as Homo sapiens) [compound 323]”, in test [1], the “Copies/cell class, AML1” value is 2 (2 indicates 1-5 copies/cell); the “Copies/cell class, CLL2” value was 4 (4 indicates >25 copies per cell); the “Copies/cell class, CLL4” value was 4 (4 indicates >25 copies per cell); the “Copies/cell class, JY” value is given as 4 (4 indicates >25 copies per cell). Further, in test [1], the “Copies/cell class, ALL1” value is reported as 4 (4 indicates >25 copies per cell); the “Copies/cell class, HCL1” value is on record as 4 (4 indicates >25 copies per cell); the “Copies/cell class, B Cell” value was 2 (2 indicates 1-5 copies/cell); the “Copies/cell class, T Cell” value is reported as 4 (4 indicates >25 copies per cell). Moreover, in the test with HLA-B*0702, the L/M result is on record as “L”.

For “377 (SPR[pS]PGKPM; listed as Homo sapiens) [compound 377]”, in test [1], the “Copies/cell class, AML1” value is recorded as 2 (2 indicates 1-5 copies/cell); the “Copies/cell class, CLL2” value is 1 (1 indicates <1 copy/cell); the “Copies/cell class, CLL4” value is recorded as 2 (2 indicates 1-5 copies/cell); the “Copies/cell class, JY” value was 4 (4 indicates >25 copies per cell). In addition, in test [1], the “Copies/cell class, ALL1” value is recorded as 1 (1 indicates <1 copy/cell) and the “Copies/cell class, HCL1” value is given as 2 (2 indicates 1-5 copies/cell). The L/M entry with HLA-B*0702 is on record as “L”.

With “282 (KPA[pS]PARRL; listed as Homo sapiens) [compound 282]”, in test [1], the “Copies/cell class, CLL2” value is 1 (1 indicates <1 copy/cell); the “Copies/cell class, JY” value was 1 (1 indicates <1 copy/cell); the “Copies/cell class, ALL1” value is on record as 1 (1 indicates <1 copy/cell); the “Copies/cell class, HCL1” value is 1 (1 indicates <1 copy/cell). The L/M entry with HLA-B*0702 is recorded as “L”.

Regarding “361 (RSL[pS]PLLF; listed as Homo sapiens) [compound 361]”, in test [1], the “Copies/cell class, ALL1” value is 2 (2 indicates 1-5 copies/cell); the “Copies/cell class, B Cell” value is recorded as 1 (1 indicates <1 copy/cell); the “Copies/cell class, T Cell” value is 1 (1 indicates <1 copy/cell). The L/M result with HLA-B*0702 was “L”.

“309 (RPA[pS]PAAKL; listed as Homo sapiens) [compound 309]”: in test [1], the “Copies/cell class, AML1” value is reported as 1 (1 indicates <1 copy/cell); the “Copies/cell class, CLL2” value is 2 (2 indicates 1-5 copies/cell); the “Copies/cell class, CLL4” value is recorded as 1 (1 indicates <1 copy/cell); the “Copies/cell class, JY” value is 4 (4 indicates >25 copies per cell). Also, in test [1], the “Copies/cell class, ALL1” value is on record as 2 (2 indicates 1-5 copies/cell); the “Copies/cell class, HCL1” value is given as 1 (1 indicates <1 copy/cell); the “Copies/cell class, B Cell” value is on record as 1 (1 indicates <1 copy/cell); the “Copies/cell class, T Cell” value was 1 (1 indicates <1 copy/cell). Also, the L/M entry with HLA-B*0702 is given as “M”.

As for “321 (RPP[pS]PGPVL; listed as Homo sapiens) [compound 321]”, in test [1], the “Copies/cell class, CLL2” value was 1 (1 indicates <1 copy/cell); the “Copies/cell class, CLL4” value is recorded as 1 (1 indicates <1 copy/cell); the “Copies/cell class, JY” value is 4 (4 indicates >25 copies per cell); the “Copies/cell class, ALL1” value is listed as 2 (2 indicates 1-5 copies/cell). Moreover, in test [1], the “Copies/cell class, HCL1” value is reported as 1 (1 indicates <1 copy/cell) and the “Copies/cell class, T Cell” value is recorded as 2 (2 indicates 1-5 copies/cell). Besides, the L/M entry with HLA-B*0702 is recorded as “L”.

As to “350 (RPW[pS]PAVSA; listed as Homo sapiens) [compound 350]”, in test [1], the “Copies/cell class, JY” value was 1 (1 indicates <1 copy/cell); the “Copies/cell class, ALL1” value is 1 (1 indicates <1 copy/cell); the “Copies/cell class, HCL1” value is on record as 1 (1 indicates <1 copy/cell). In addition, the L/M result with HLA-B*0702 was “L”.

Turning to “317 (RPKLS[pS]PAL; listed as Homo sapiens) [compound 317]”, the “Copies/cell class, AML1” value in test [1] was 1 (1 indicates <1 copy/cell). The L/M entry with HLA-B*0702 was “L”.

For the substance “284 (KPPH[pS]PLVL; listed as Homo sapiens) [compound 284]”, in test [1], the “Copies/cell class, ALL1” value is listed as 4 (4 indicates >25 copies per cell) and the “Copies/cell class, T Cell” value is given as 2 (2 indicates 1-5 copies/cell). Besides, the L/M entry with HLA-B*0702 is listed as “L”.

As for “308 (RPA[pS]ARAQPGL; listed as Homo sapiens) [compound 308]”, in test [1], the “Copies/cell class, AML1” value is listed as 2 (2 indicates 1-5 copies/cell); the “Copies/cell class, CLL2” value is 3 (3 indicates 6-25 copies per cell); the “Copies/cell class, CLL4” value was 2 (2 indicates 1-5 copies/cell); the “Copies/cell class, JY” value is on record as 4 (4 indicates >25 copies per cell). In addition, in test [1], the “Copies/cell class, ALL1” value is recorded as 1 (1 indicates <1 copy/cell) and the “Copies/cell class, HCL1” value is recorded as 2 (2 indicates 1-5 copies/cell). The L/M entry in the test with HLA-B*0702 was “L/M”.

Consider “379 (SPR[pS]PSTTYL; listed as Homo sapiens) [compound 379]”, for which the “Copies/cell class, AML1” value in test [1] was 2 (2 indicates 1-5 copies/cell). Besides, the L/M entry with HLA-B*0702 was “L”.

As for “312 (RPD[pS]RLGKTEL; listed as Homo sapiens) [compound 312]”, in test [1], the “Copies/cell class, AML1” value is given as 2 (2 indicates 1-5 copies/cell); the “Copies/cell class, CLL2” value was 1 (1 indicates <1 copy/cell); the “Copies/cell class, JY” value is reported as 4 (4 indicates >25 copies per cell); the “Copies/cell class, ALL1” value is listed as 2 (2 indicates 1-5 copies/cell). Also, the “Copies/cell class, HCL1” value in test [1] is 1 (1 indicates <1 copy/cell). For the same substance, the L/M result with HLA-B*0702 is listed as “L”.

On to “344 (RP[pS]SPALYF; listed as Homo sapiens) [compound 344]”, for which, in test [1], the “Copies/cell class, AML1” value is reported as 1 (1 indicates <1 copy/cell); the “Copies/cell class, CLL2” value is given as 1 (1 indicates <1 copy/cell); the “Copies/cell class, CLL4” value was 1 (1 indicates <1 copy/cell); the “Copies/cell class, ALL1” value is 1 (1 indicates <1 copy/cell). In addition, in test [1], the “Copies/cell class, HCL1” value is recorded as 1 (1 indicates <1 copy/cell). Further, in the test with HLA-B*0702, the L/M entry is recorded as “L”.

Consider “391 (YQR[pS]FDEVEGV; listed as Homo sapiens) [compound 391]”, for which the “Copies/cell class, AML1” value in test [1] is 1 (1 indicates <1 copy/cell). In addition, the L/M entry with HLA-B*0702 is recorded as “L”.

In the case of “330 (RPR[pS]AVLL; listed as Homo sapiens) [compound 330]”, the “Copies/cell class, AML1” value in test [1] is 2 (2 indicates 1-5 copies/cell). Further, the L/M result with HLA-B*0702 was “L”.

As to “339 (RPR[pS]PTGP[pS]NSF; listed as Homo sapiens) [compound 339]”, in test [1], the “Copies/cell class, AML1” value is given as 2 (2 indicates 1-5 copies/cell). The L/M entry in the test with HLA-B*0702 was “L”.
